# Measured values taken from CN101218351A (UNIV DUKE, dated 2008).
# T1: human CD19 (human, UniProt P15391 20-556)
# T1 construct: whole, on cells; also called hCD19
# T1 sequence (looked up): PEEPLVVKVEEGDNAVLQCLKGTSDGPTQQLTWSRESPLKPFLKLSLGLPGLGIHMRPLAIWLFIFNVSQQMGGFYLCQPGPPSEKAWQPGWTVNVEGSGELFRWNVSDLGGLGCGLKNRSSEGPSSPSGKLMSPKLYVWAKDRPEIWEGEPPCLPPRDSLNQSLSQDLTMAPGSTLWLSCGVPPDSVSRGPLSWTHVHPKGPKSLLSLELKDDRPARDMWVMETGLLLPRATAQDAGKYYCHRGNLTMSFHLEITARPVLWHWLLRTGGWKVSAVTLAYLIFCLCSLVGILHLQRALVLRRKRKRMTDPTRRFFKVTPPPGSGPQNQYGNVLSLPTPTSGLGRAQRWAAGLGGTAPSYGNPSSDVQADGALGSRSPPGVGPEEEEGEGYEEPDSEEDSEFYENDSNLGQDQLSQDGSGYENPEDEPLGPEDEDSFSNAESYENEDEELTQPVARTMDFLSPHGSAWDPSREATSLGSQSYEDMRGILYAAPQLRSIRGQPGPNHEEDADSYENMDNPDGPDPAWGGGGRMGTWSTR
# Target: T1, human CD19
# Assay: flow cytometry on hCD19 cDNA-transfected 300.19 cells, antibody at 5 ug/mL, anti-mouse Ig PE secondary
binder,measurement,value
"FMC63 anti-CD19 antibody (antibody, IgG2a, V domains shown, Mouse monoclonal IgG2a, bought from Chemicon International) VH: EVKLQESGPGLVAPSQSLSVTCTVSGVSLPDYGVSWIRQPPRKGLEWLGVIWGSEDTTYYNSALKSRLTIIKDNSKSQVFLKMNSLQTDDTAIYYCAKHYYYGGSYAMDYWGQGTSVTVSS VL: DIQMTQTTSSLSASLGDRVTISCRASQDISKYLNWYQQKPDGTVKLLIYHTSRLHSGVPSRFSGSGSGTDYSLTISNLEQEDIATYFCQQGNTLPYTFGGGTKLEIT",binding result,binds
